These results are taken from patent US20230272067A1 (published 2023).

In experiment [1] the target is T1, extracellular domain (ECD) of mouse TIGIT (mouse, UniProt P86176 29-148, biotinylated (site not stated)).
T1 chain: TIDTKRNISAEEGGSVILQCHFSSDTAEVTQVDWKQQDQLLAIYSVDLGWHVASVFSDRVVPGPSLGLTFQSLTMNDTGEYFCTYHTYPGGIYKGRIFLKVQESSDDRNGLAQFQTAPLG
The experiment is described as follows: SPR (Biacore T200, multi-cycle). (In general: In SPR one partner is held on a chip, and binding of the other changes the refractive index at the surface.)

For experiment [2], the target named is T2, extracellular domain (ECD) of human TIGIT (human, UniProt Q495A1 22-141, biotinylated (site not stated)).
T2 chain: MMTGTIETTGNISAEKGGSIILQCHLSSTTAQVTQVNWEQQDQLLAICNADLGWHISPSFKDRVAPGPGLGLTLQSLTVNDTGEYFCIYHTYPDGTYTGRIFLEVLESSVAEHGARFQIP
As to the kind of experiment: SPR (Biacore T200, multi-cycle).

The target in experiment [3] is T1, extracellular domain (ECD) of mouse …. As to the kind of experiment: SPR (Biacore T200, multi-cycle).
The target in experiment [4] is T2, extracellular domain (ECD) of human …. The experiment is described as follows: SPR (Biacore T200, multi-cycle).
Experiment [5] has the same target. The experiment is described as follows: competition ELISA; competition with hCD112. (ELISA stands for enzyme-linked immunosorbent assay.)
Experiment [6] has the same target. The experiment is described as follows: competition ELISA; competition with hCD155.
In experiment [7] the target is T1, extracellular domain (ECD) of mouse …. The experiment is described as follows: competition ELISA; competition with mCD155.

Like-named read-outs stand apart in the source and are kept apart here.

B1: T4M (antibody, V domains shown)
VH: QVQLQQWGAGLLKPSETLSLTCAVYGGSFNDYYWTWIRQAPGKGLEWIGEITHSGSADYNPSLKSRVTISVDTSKNQFSLKLRSVTAADTAVYYCARGLKLFRWKKTTVTTFPPYYYGMDVWGQGTTVTVSS
VL: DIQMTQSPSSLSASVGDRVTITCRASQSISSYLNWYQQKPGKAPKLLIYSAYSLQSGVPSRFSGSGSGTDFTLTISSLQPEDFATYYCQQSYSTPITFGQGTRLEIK
Turning to B1, the Kd in experiment [1] was 2.74 nM; in experiment [2], 8.75 nM.

B2: CS19ME3-23 (antibody, V domains shown)
VH: EVQLLESGGGLVQPGGSLRLSCAASGFTFSSYAMHWVRQAPGKGLEWVAVISYDGSNKYYADSVKGRFTISRDNSKNTLYLQMNSLRAEDTAVYYCATLEGGGRYYDFWSADYWGQGTLVTVSS
VL: QSALTQPRSVSGSPGQSVTISCTGTSSDVGGYNFVSWYQQHPGKAPKLLIYAVSKRPSGVPDRFSGSKSGNTASLTISGLQAEDEADYYCSSYSSESTRVVFGGGTKLTVL
B2: the Kd in experiment [3] was 21.6 nM; in experiment [4], 3.49 nM.

B3: CS19ME3-30-N (antibody, V domains shown)
VH: QVQLVESGGGVVQPGRSLRLSCAASGFTFSSYAMHWVRQAPGKGLEWVAVISYDGSNKYYADSVKGRFTISRDNSKNTLYLQMNSLRAEDTAVYYCATLEGGGRYYDFWSADYWGQGTLVTVSS
VL: QSALTQPRSVSGSPGQSVTISCTGTSSDVGGYNFVSWYQQHPGKAPKLLIYAVSNRPSGVPDRFSGSKSGNTASLTISGLQAEDEADYYCSSYSSESTRVVFGGGTKLTVL
In the case of B3, the Kd in experiment [3] is 2.85 nM; in experiment [4], 3.36 nM. Further, the IC50 was 0.9 µg/mL in experiment [5], 1.18 µg/mL in experiment [6] and 0.67 µg/mL in experiment [7].

In general, Kd refers to a measure of binding affinity in units of concentration. A higher Kd goes with weaker binding. The term IC50 denotes the concentration that gives 50% inhibition.
